From the supplement of paper PMC12455559
± gives the standard deviation of the averaged measurements.

How the values were obtained:
[1] = PET hydrolysis, aromatic products released after 48 h (umol product/mg enzyme); higher = more PET depolymerization activity
Outline: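 Candidate enzymes, made tagless by SUMO cleavage and purified on nickel beads, were added at 5 μg (50 μL) to 3.5 mg of either amorphous PET film or crystalline PET powder in 450 μL buffer. The sealed plates stood unshaken for 48 h at 40 or 60 °C. Activity on PET is the aromatic product found in the supernatant per mg enzyme, read at 260 and 280 nm against buffer blanks.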

[2] = purified protein yield per well (BCA); higher = higher soluble expression
Outline: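 Candidate enzymes were expressed in E. coli C41(DE3) in 2 mL autoinduction cultures with 100 µg/mL kanamycin, at 37 °C for 2 h and then 18 °C for 40 h. Cells were lysed, and protein was bound to Ni-charged magnetic beads and released by SUMO protease cleavage on an OT-2 robot. The read-out is purified protein yield per well, measured with the Pierce Rapid Gold BCA kit. Values below 25 ug (0.1 mg/mL) are below the detection threshold.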

[3] = melting temperature (DSF); higher = more thermostable
Outline: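 Enzymes made in E. coli C41(DE3) were nickel-bead purified and cut free with SUMO protease before testing. Differential scanning fluorimetry gave each melting temperature. For this, 5 μL 5X Sypro Orange was added to 45 μL enzyme (0 to 0.3 mg/mL) in sealed PCR plates, and a Bio-Rad CFX96 read fluorescence from 25 °C over 250 cycles of 0.3 °C each, ramping at 0.3 °C/s.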

[4] = substrate: aFilm, 40 °C, pH 4.5
[5] = substrate: aFilm, 40 °C, pH 5.5
[6] = substrate: aFilm, 40 °C, pH 6.5
[7] = substrate: aFilm, 40 °C, pH 7.5
[8] = substrate: aFilm, 60 °C, pH 4.5
[9] = substrate: aFilm, 60 °C, pH 5.5
[10] = substrate: aFilm, 60 °C, pH 6.5
[11] = substrate: aFilm, 60 °C, pH 7.5
[12] = substrate: cryPow, 40 °C, pH 4.5
[13] = substrate: cryPow, 40 °C, pH 5.5
[14] = substrate: cryPow, 40 °C, pH 6.5
[15] = substrate: cryPow, 40 °C, pH 7.5
[16] = substrate: cryPow, 60 °C, pH 4.5
[17] = substrate: cryPow, 60 °C, pH 5.5
[18] = substrate: cryPow, 60 °C, pH 6.5
[19] = substrate: cryPow, 60 °C, pH 7.5

| Sequence | PET hydrolysis [1, 4] | PET hydrolysis [1, 5] | PET hydrolysis [1, 6] | PET hydrolysis [1, 7] | PET hydrolysis [1, 8] | PET hydrolysis [1, 9] | PET hydrolysis [1, 10] | PET hydrolysis [1, 11] | PET hydrolysis [1, 12] | PET hydrolysis [1, 13] | PET hydrolysis [1, 14] | PET hydrolysis [1, 15] | PET hydrolysis [1, 16] | PET hydrolysis [1, 17] | PET hydrolysis [1, 18] | PET hydrolysis [1, 19] | purified protein yield per well [2] | melting temperature [3] | PET hydrolysis ([1]; substrate: aFilm, 40 °C, pH 8.5) | PET hydrolysis ([1]; substrate: aFilm, 60 °C, pH 8.5) | PET hydrolysis ([1]; substrate: cryPow, 40 °C, pH 8.5) | PET hydrolysis ([1]; substrate: cryPow, 60 °C, pH 8.5) |
| --- | --- | --- | --- | --- | --- | --- | --- | --- | --- | --- | --- | --- | --- | --- | --- | --- | --- | --- | --- | --- | --- | --- |
| ADNPYQRGPNPTRESVAASRGTFATAETSVGGGNGFAAAKIYYPTDTGQGKFGAIAVVPGYTATWAAEGAWMGHWLASFGFVVIGIDTLSRNDWDVARGTQLLAALDYLTQRSSVRDRVDATRLAVMGHSMGGGGAISAALRRPSLKTAIGNAPFSASQNLNNMQIPTALLAGQRDGTTTPSSISGYYNQIPAGVEKMYLELTGAGHGFPTSNNSVMTRKVIPWMKIFIDNDTRYHQFLCPLMDNTGISAYRSTCPLIPGDPTPPSDTYSLVGAASGKCADVEGVSQANGARLLLWTCNGQVNQRWTQTAAGELRVYDNPKCMDAGASAQGTRVTINACNGGNSQKWTVNANGTVTNAASGRCLDAGGTADNSPVVVNTCTGGSSQNWSKRS [TEP029] | < 3 | < 3 | < 3 | < 3 | < 3 | < 3 | < 3 | < 3 | < 3 | < 3 | 14.5 ± 5 | 15.5 ± 0.71 | < 3 | < 3 | < 3 | < 3 | 282 µg | 57.7 C | – | – | – | – |
| ADNPYQRGPNPTVASVAATRGTFATAQTSVPAGNGFGGGVIYYPTDTSQGTFGGVAIVPGYSALFANEEAWMGPWLASFGFVVIGIETNSRTDSADARGTQLLAALDYLTQRSSVRDRVDPNRLSVVGHSAGGAGVLSAILRRPSLKAGIGLAPGSPVGDYSLSNDRVPTMFISGQRDTTVTQSYLNGLYTTIPASTPSAWVEITGVDHLFATRANTTEMRVLIPWLKIWVDNDTRYTQFLCPLADSTGISMYRNKCPYVPPGGSSPSPSPSPSSSPSRFPSPSPSPSPSQSPSQSPSASPSPPPPGACVAEYRTVNSWPGGYQGEVTVTAGGSAVNGWTVRWTLGSGQTITQLWNGTLSTSGSAVTVKNASFNGSIPASGSATFGFLATGTPSTPSLTCTSP [ESM015] | – | – | – | – | – | – | – | – | < 3 | < 3 | < 3 | < 3 | < 3 | < 3 | < 3 | < 3 | 540 µg | 60.7 C | – | – | – | – |
| ADQRGPDPTVQSIEAARGPFATSTSRVSSLVSGFGGGTIYYPTDTSQGRFGGVVIAPGYTAGESSIAWLGPRLASQGFVVFTIDTLTRVDQPASRGRQLLAAADYLTQRSDVADRVDPARLAVMGHSMGGGGTLEAAKSRPGLKAIIPLTPWNLDKTWPEITTPTLIFGAQNDSVASVVTHARPFYQSLPATTPRSYLELRGASHFAPNLSNTTIAKYSIAWLKRFVDDDQRYTQFLCPAPADTALSDVRTSCPF [TEP091] | – | – | – | – | – | – | – | – | < 3 | 5 | 10 | 17 | – | – | – | – | 36.2 µg | 55.6 C | – | – | – | – |
| ADSPYQRGPDPTLASVAATRGPFATTQATVPAGNGFNGGYVYYPTDTSQGTWGAVAIVPGYSALFANEEAWMGPWLASFGFVVIGIETNSRTDGADARATQLLAALDYLTRTSPIRNRVDPNRLSVMGHSAGGAGTLLAALRRPTLKAAVGLAPGTPGNNLNMSTTQVPTMLLSGQNDGTVTPSYVQGIYNTLPAGVEHAWAELAGNDHLSFTRSNPTEMRLLIPWLKTFLDNDTRYTQFLCPLADSTGVSRYSATCPLVPPDGPTPPPTTAPPTTTPPTSTPPTTSAPTTPPPSGAACTATYRTVNSWSGGFQGEVTVTAGTAAVNGWTVTWNLSNGQSISQVWNGTLSTSGSTATVRNVSYNGSLAPGGTTTFGFLGSGTPANASPTCASP [ESM014] | – | – | – | – | – | – | – | – | < 3 | < 3 | < 3 | < 3 | < 3 | < 3 | < 3 | < 3 | 85.8 µg | 59.2 C | – | – | – | – |
| ADTPYERGPNPSESLIEQRRGNYDIAQRSISRFSSDGFRNGTIYYPTDTSDGKFGVIAISPGYTAGESSIAWLGSRIASFGFVVVTINTTTRYDQPRQRSTQLLAALDHAMNDSVVGPLIDPERQAVMGHSMGGGGALQAAESRPEIDAVVALTPWNLKKNWDGVDAATLIIGAERDTVASVRTHSIPFYESLTQAEQRGYLELRGASHFAPNVSNTTIAKYSIAWMKRYLDNDDRYDQFLNPGPAVGYASGVSDYRLQ [DP003] | – | < 3 | < 3 | < 3 | – | < 3 | < 3 | < 3 | – | < 3 | < 3 | < 3 | – | < 3 | < 3 | < 3 | 185 µg | 42.4 C | 3 ± 4.2 | < 3 | < 3 | < 3 |
| AEAADNPYQRGPDPTLASVAATRGPFATAQATVPAGNGFNGGYVYYPTDTSLGTWGAVAIVPGYSALFADEEAWMGPWLASFGFVVLGIETNSRTDGADARATQLLAALDYLTQSSPVRHRVDANRLGVMGHSAGGAGTLMAALRRPSLKSAVGLAPGAPGNSLNMSTTQVPTMLISGQNDGTVTPSYVQGIYNTLPATVEHAWAELAGNDHLSFTRPNPTEMRILIPWLKIFLDNDTRYTQFLCPLADSTGVSRYSATCPLVPPGGPTAPPTVTPPPPTPTTPSPTTPPTSAACTATYRTVNSWSGGFQGEVTVTAGRAAINGWTVRWDLGNGQSISQVWNGTLSTSGSTATVRNVSYNGSLAPAASTGFGFLGTGAPAIPRLTCTSP [ESM037] | < 3 | < 3 | < 3 | < 3 | < 3 | < 3 | < 3 | < 3 | < 3 | < 3 | < 3 | < 3 | < 3 | < 3 | < 3 | < 3 | 358 µg | 73.3 C | – | – | – | – |
